# From US20240321457A1, “SYSTEMS FOR AND METHODS OF TREATMENT SELECTION” (THE REGENTS OF THE UNIVERSITY OF CALIFORNIA, priority 2020, published 2024)
# Molecular target: UBE2N (human) (UniProt P61088)
# Assay: AP-MS, PPI score from compPASS and SAINTexpress, MDA-MB-231 cells
# UBE2N (human), sequence (P61088 whole entry): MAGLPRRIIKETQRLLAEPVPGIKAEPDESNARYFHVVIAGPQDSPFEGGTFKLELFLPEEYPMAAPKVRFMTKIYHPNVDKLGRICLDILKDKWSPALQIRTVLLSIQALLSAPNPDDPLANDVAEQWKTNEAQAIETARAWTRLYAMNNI
substance,measurement,value
BRCA1 isoform lacking exon 11 (from UniProt P38398 1-721) (enzyme),PPI score,< 0.6
